Results published in article PMC9168760, “A novel AMPK activator shows therapeutic potential in hepatocellular carcinoma by suppressing HIF1α‐mediated aerobic glycolysis” (Molecular Oncology, 2022).

Target: T1, hypoxia‐inducible factor 1‐alpha (human (endogenous in PLC5), UniProt Q16665 1-826)
T1 construct: HIF1α, endogenous protein of human HCC cells, immunoprecipitated or blotted with HIF1α antibodies; also called HIF1α
Assay: co-IP; cells treated with DMSO or SCT‐1015; immunoprecipitation with HIF1α antibodies, blot for PHD3; 400 μg whole‐cell extract, 4 μg antibody overnight at 4 °C, protein A/G magnetic beads
Conditions: partners not purified

T1 sequence (Q16665 whole entry): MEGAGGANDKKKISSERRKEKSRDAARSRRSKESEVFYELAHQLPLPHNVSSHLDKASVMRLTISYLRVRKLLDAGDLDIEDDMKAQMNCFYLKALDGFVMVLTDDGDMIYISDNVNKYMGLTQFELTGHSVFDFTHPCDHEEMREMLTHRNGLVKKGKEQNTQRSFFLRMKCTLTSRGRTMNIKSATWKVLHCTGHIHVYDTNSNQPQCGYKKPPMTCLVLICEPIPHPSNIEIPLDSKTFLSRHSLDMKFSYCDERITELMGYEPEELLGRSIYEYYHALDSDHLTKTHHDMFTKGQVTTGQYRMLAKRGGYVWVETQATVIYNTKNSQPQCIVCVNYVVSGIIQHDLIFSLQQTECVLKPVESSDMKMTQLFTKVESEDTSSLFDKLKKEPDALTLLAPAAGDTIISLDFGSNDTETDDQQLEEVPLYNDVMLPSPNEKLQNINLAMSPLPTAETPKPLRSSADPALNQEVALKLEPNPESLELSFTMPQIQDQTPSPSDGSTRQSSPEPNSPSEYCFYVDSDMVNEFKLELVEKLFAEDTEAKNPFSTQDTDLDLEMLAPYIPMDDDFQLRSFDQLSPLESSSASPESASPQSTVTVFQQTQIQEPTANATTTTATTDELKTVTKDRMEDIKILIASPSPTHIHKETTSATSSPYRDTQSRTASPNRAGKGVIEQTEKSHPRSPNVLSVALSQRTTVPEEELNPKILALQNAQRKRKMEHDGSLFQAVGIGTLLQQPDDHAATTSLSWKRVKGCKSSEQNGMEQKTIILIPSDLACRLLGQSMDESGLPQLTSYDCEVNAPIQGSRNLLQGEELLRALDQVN

fold change of the ratio PHD3/HIF1α in the HIF1α immunoprecipitate, SCT‐1015 against DMSO: 1.6 fold
B1: prolyl hydroxylase 3 (enzyme, human (endogenous in HCC cells), UniProt Q9H6Z9 1-239, looked up)
chain: MPLGHIMRLDLEKIALEYIVPCLHEVGFCYLDNFLGEVVGDCVLERVKQLHCTGALRDGQLAGPRAGVSKRHLRGDQITWIGGNEEGCEAISFLLSLIDRLVLYCGSRLGKYYVKERSKAMVACYPGNGTGYVRHVDNPNGDGRCITCIYYLNKNWDAKLHGGILRIFPEGKSFIADVEPIFDRLLFFWSDRRNPHEVQPSYATRYAMTVWYFDAEERAEAKKKFRNLTRKTESALTED
notes: PHD3, endogenous protein detected with the PHD3 antibody (Abcam ab30782) in HIF1α immunoprecipitates; also called PHD3; PHD
